B1: minF1; the commonest letter at each place (parent)
chain: GAGACCGCAACTGAAAAGTTGTTATCAGAAATGGATGGGTTGAATTTCTGCACGTAGAAGCAAAAGGC

Variants of: B1
Experiment: fraction ligated after 30 min (ligated reads / total reads); higher = more ligase activity
Settings: with F1*subA RNA substrate (template-directed ligation), 42 °C
Method in brief: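 Oligo-pool templates of minimized ligase ribozyme variants were PCR-amplified, T7-transcribed and gel-purified. Ligated and unligated RNAs were gel-separated, reverse transcribed with barcoded primers, and MiSeq-sequenced; core bases were filtered at quality ≥30. Fraction ligated per variant was ligated reads over total reads.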
For GAGACCGCAACTGAAAAGTTGTCATCAGAAATGGATGGGTTCAATTTCTGCACGTAGAAGCAAAAGGC, the fraction ligated was 0.00249. With GAGACCGCAACTGAAAAGTTGTCATCAGAAATGGATGGGTTAAATTTCTGCACGTAGAAGCAAAAGGC the fraction ligated was 0.0247. GAGACCGCAACTGAAAAGTTGTCATCAGAAATGGATGGGTTTAATTTCTGCACGTAGAAGCAAAAGGC showed a fraction ligated of 0.00449. Work on GAGACCGCAACTGAAAAGTTGTCATCAGAAAAGGATGGGTTGAATTTCTGCACGTAGAAGCAAAAGGC yielded a fraction ligated of 0.00196. For GAGACCGCAACTGAAAAGTTGTCATCAGAAAGGGATGGGTTGAATTTCTGCACGTAGAAGCAAAAGGC, the fraction ligated was 0.00399. GAGACCGCAACTGAAAAGTTGTCATCAGAAACGGATGGGTTGAATTTCTGCACGTAGAAGCAAAAGGC showed a fraction ligated of 0.0041. GAGACCGCAACTGAAAAGTTGTCATCAGAAATGGAAGGGTTGAATTTCTGCACGTAGAAGCAAAAGGC gave a fraction ligated of 0.0123. For GAGACCGCAACTGAAAAGTTGTCATCAGAAATGGACGGGTTGAATTTCTGCACGTAGAAGCAAAAGGC, the fraction ligated was 0.00904. GAGACCGCAACTGAAAAGTTGTCATCAGAAATGGAGGGGTTGAATTTCTGCACGTAGAAGCAAAAGGC gave a fraction ligated of 0.0318. GAGACCGCAACTGAAAAGTTGTGATCAGAGATGGATGGGTTGAATTTCTGCACGTAGAAGCAAAAGGC was tested, and the fraction ligated was 0.803. GAGACCGCAACTGAAAAGTTGTGATCAGATATGGATGGGTTGAATTTCTGCACGTAGAAGCAAAAGGC showed a fraction ligated of 0.806. With GAGACCGCAACTGAAAAGTTGTGATCAGACATGGATGGGTTGAATTTCTGCACGTAGAAGCAAAAGGC the fraction ligated was 0.789. Work on GAGACCGCAACTGAAAAGTTGTCATCAGAAATGTATGGGTTGAATTTCTGCACGTAGAAGCAAAAGGC yielded a fraction ligated of 0.00428. GAGACCGCAACTGAAAAGTTGTCATCAGAAATGCATGGGTTGAATTTCTGCACGTAGAAGCAAAAGGC showed a fraction ligated of 0.0023. Work on GAGACCGCAACTGAAAAGTTGTCATCAGAAATGAATGGGTTGAATTTCTGCACGTAGAAGCAAAAGGC yielded a fraction ligated of 0.0166. With GAGACCGCAACTGAAAAGTTGTCATCAGACATGGATGGGTTGAATTTCTGCACGTAGAAGCAAAAGGC the fraction ligated was 0.21. GAGACCGCAACTGAAAAGTTGTCATCAGAGATGGATGGGTTGAATTTCTGCACGTAGAAGCAAAAGGC was tested, and the fraction ligated was 0.391. GAGACCGCAACTGAAAAGTTGTCATCAGATATGGATGGGTTGAATTTCTGCACGTAGAAGCAAAAGGC showed a fraction ligated of 0.221. Work on GAGACCGCAACTGAAAAGTTGTGATCAGAAATAGATGGGTTGAATTTCTGCACGTAGAAGCAAAAGGC yielded a fraction ligated of 0.801. GAGACCGCAACTGAAAAGTTGTGATCAGAAATTGATGGGTTGAATTTCTGCACGTAGAAGCAAAAGGC gave a fraction ligated of 0.556. Variant GAGACCGCAACTGAAAAGTTGTGATCAGAAATCGATGGGTTGAATTTCTGCACGTAGAAGCAAAAGGC has a fraction ligated of 0.73. GAGACCGCAACTGAAAAGTTGTCATCAGAAATGGATGGGTTGATTTTCTGCACGTAGAAGCAAAAGGC showed a fraction ligated of 0.0534. GAGACCGCAACTGAAAAGTTGTCATCAGAAATGGATGGGTTGAGTTTCTGCACGTAGAAGCAAAAGGC showed a fraction ligated of 0.0605. GAGACCGCAACTGAAAAGTTGTCATCAGAAATGGATGGGTTGACTTTCTGCACGTAGAAGCAAAAGGC showed a fraction ligated of 0.0323. Variant GAGACCGCAACTGAAAAGTTGTGATCAGAAATGGATGGGTTGAATTTCTGCACGTAGAAGCAAAAGGC has a fraction ligated of 0.8. GAGACCGCAACTGAAAAGTTGTCACCAGAAATGGATGGGTTGAATTTCTGCACGTAGAAGCAAAAGGC gave a fraction ligated of 0.0306. GAGACCGCAACTGAAAAGTTGTCAGCAGAAATGGATGGGTTGAATTTCTGCACGTAGAAGCAAAAGGC was tested, and the fraction ligated was 0.0076. In the case of GAGACCGCAACTGAAAAGTTGTCAACAGAAATGGATGGGTTGAATTTCTGCACGTAGAAGCAAAAGGC, the fraction ligated is reported as 0.0129. Variant GAGACCGCAACTGAAAAGTTGTGATCAGAAATGGTTGGGTTGAATTTCTGCACGTAGAAGCAAAAGGC has a fraction ligated of 0.031. Work on GAGACCGCAACTGAAAAGTTGTGATCAGAAATGGCTGGGTTGAATTTCTGCACGTAGAAGCAAAAGGC yielded a fraction ligated of 0.0185. For GAGACCGCAACTGAAAAGTTGTGATCAGAAATGGGTGGGTTGAATTTCTGCACGTAGAAGCAAAAGGC, the fraction ligated was 0.247. In the case of GAGACCGCAACTGAAAAGTTGTCATCAGTAATGGATGGGTTGAATTTCTGCACGTAGAAGCAAAAGGC, the fraction ligated is reported as 0.288. With GAGACCGCAACTGAAAAGTTGTGATTAGAAATGGATGGGTTGAATTTCTGCACGTAGAAGCAAAAGGC the fraction ligated was 0.434. Variant GAGACCGCAACTGAAAAGTTGTGATGAGAAATGGATGGGTTGAATTTCTGCACGTAGAAGCAAAAGGC has a fraction ligated of 0.0528. GAGACCGCAACTGAAAAGTTGTGATAAGAAATGGATGGGTTGAATTTCTGCACGTAGAAGCAAAAGGC was tested, and the fraction ligated was 0.123. GAGACCGCAACTGAAAAGTTGTCATCAGAAATGGATCGGTTGAATTTCTGCACGTAGAAGCAAAAGGC showed a fraction ligated of 0.00507. For GAGACCGCAACTGAAAAGTTGTCATCAGAAATGGATAGGTTGAATTTCTGCACGTAGAAGCAAAAGGC, the fraction ligated was 0.00595. GAGACCGCAACTGAAAAGTTGTCATCAGAAATGGATTGGTTGAATTTCTGCACGTAGAAGCAAAAGGC gave a fraction ligated of 0.0164. Variant GAGACCGCAACTGAAAAGTTGTGATCAGCAATGGATGGGTTGAATTTCTGCACGTAGAAGCAAAAGGC has a fraction ligated of 0.824. With GAGACCGCAACTGAAAAGTTGTGATCAGTAATGGATGGGTTGAATTTCTGCACGTAGAAGCAAAAGGC the fraction ligated was 0.803. GAGACCGCAACTGAAAAGTTGTGATCAGGAATGGATGGGTTGAATTTCTGCACGTAGAAGCAAAAGGC was tested, and the fraction ligated was 0.813. In the case of GAGACCGCAACTGAAAAGTTGTGATCAGAAGTGGATGGGTTGAATTTCTGCACGTAGAAGCAAAAGGC, the fraction ligated is reported as 0.82. GAGACCGCAACTGAAAAGTTGTGATCAGAACTGGATGGGTTGAATTTCTGCACGTAGAAGCAAAAGGC showed a fraction ligated of 0.783. For GAGACCGCAACTGAAAAGTTGTGATCAGAATTGGATGGGTTGAATTTCTGCACGTAGAAGCAAAAGGC, the fraction ligated was 0.826. In the case of GAGACCGCAACTGAAAAGTTGTGATCAGAAATGGATGGGTTGAGTTTCTGCACGTAGAAGCAAAAGGC, the fraction ligated is reported as 0.764. GAGACCGCAACTGAAAAGTTGTGATCAGAAATGGATGGGTTGATTTTCTGCACGTAGAAGCAAAAGGC showed a fraction ligated of 0.792. Variant GAGACCGCAACTGAAAAGTTGTGATCAGAAATGGATGGGTTGACTTTCTGCACGTAGAAGCAAAAGGC has a fraction ligated of 0.693. Variant GAGACCGCAACTGAAAAGTTGTCATAAGAAATGGATGGGTTGAATTTCTGCACGTAGAAGCAAAAGGC has a fraction ligated of 0.006. Variant GAGACCGCAACTGAAAAGTTGTCATGAGAAATGGATGGGTTGAATTTCTGCACGTAGAAGCAAAAGGC has a fraction ligated of 0.00264. Variant GAGACCGCAACTGAAAAGTTGTCATTAGAAATGGATGGGTTGAATTTCTGCACGTAGAAGCAAAAGGC has a fraction ligated of 0.0218. GAGACCGCAACTGAAAAGTTGTCATCAGAAATCGATGGGTTGAATTTCTGCACGTAGAAGCAAAAGGC was tested, and the fraction ligated was 0.147. GAGACCGCAACTGAAAAGTTGTCATCAGAAATAGATGGGTTGAATTTCTGCACGTAGAAGCAAAAGGC gave a fraction ligated of 0.304. GAGACCGCAACTGAAAAGTTGTCATCAGAAATTGATGGGTTGAATTTCTGCACGTAGAAGCAAAAGGC gave a fraction ligated of 0.0728. GAGACCGCAACTGAAAAGTTGTCATCAGAAATGGGTGGGTTGAATTTCTGCACGTAGAAGCAAAAGGC showed a fraction ligated of 0.0141. In the case of GAGACCGCAACTGAAAAGTTGTCATCAGAAATGGCTGGGTTGAATTTCTGCACGTAGAAGCAAAAGGC, the fraction ligated is reported as 0.00513. GAGACCGCAACTGAAAAGTTGTCATCAGAAATGGTTGGGTTGAATTTCTGCACGTAGAAGCAAAAGGC showed a fraction ligated of 0.00507. Work on GAGACCGCAACTGAAAAGTTGTCATCAGAAGTGGATGGGTTGAATTTCTGCACGTAGAAGCAAAAGGC yielded a fraction ligated of 0.392. In the case of GAGACCGCAACTGAAAAGTTGTCATCAGAATTGGATGGGTTGAATTTCTGCACGTAGAAGCAAAAGGC, the fraction ligated is reported as 0.517. With GAGACCGCAACTGAAAAGTTGTCATCAGAACTGGATGGGTTGAATTTCTGCACGTAGAAGCAAAAGGC the fraction ligated was 0.328. Work on GAGACCGCAACTGAAAAGTTGTGATCAGAAATGCATGGGTTGAATTTCTGCACGTAGAAGCAAAAGGC yielded a fraction ligated of 0.00122. For GAGACCGCAACTGAAAAGTTGTGATCAGAAATGAATGGGTTGAATTTCTGCACGTAGAAGCAAAAGGC, the fraction ligated was 0.0854. GAGACCGCAACTGAAAAGTTGTGATCAGAAATGGATGGGTTGGATTTCTGCACGTAGAAGCAAAAGGC showed a fraction ligated of 0.0673. In the case of GAGACCGCAACTGAAAAGTTGTGATCAGAAATGGATGGGTTGTATTTCTGCACGTAGAAGCAAAAGGC, the fraction ligated is reported as 0.0898. GAGACCGCAACTGAAAAGTTGTGATCAGAAATGGATGGGTTGCATTTCTGCACGTAGAAGCAAAAGGC showed a fraction ligated of 0.0643. With GAGACCGCAACTGAAAAGTTGTCATCAGAAATGGATGGGTTGGATTTCTGCACGTAGAAGCAAAAGGC the fraction ligated was 0.00398. GAGACCGCAACTGAAAAGTTGTCATCAGAAATGGATGGGTTGCATTTCTGCACGTAGAAGCAAAAGGC was tested, and the fraction ligated was 0.00429. With GAGACCGCAACTGAAAAGTTGTCATCAGAAATGGATGGGTTGTATTTCTGCACGTAGAAGCAAAAGGC the fraction ligated was 0.00662. GAGACCGCAACTGAAAAGTTGTGATCCGAAATGGATGGGTTGAATTTCTGCACGTAGAAGCAAAAGGC was tested, and the fraction ligated was 0.714. In the case of GAGACCGCAACTGAAAAGTTGTGATCGGAAATGGATGGGTTGAATTTCTGCACGTAGAAGCAAAAGGC, the fraction ligated is reported as 0.795. For GAGACCGCAACTGAAAAGTTGTGATCTGAAATGGATGGGTTGAATTTCTGCACGTAGAAGCAAAAGGC, the fraction ligated was 0.805. Variant GAGACCGCAACTGAAAAGTTGTGCTCAGAAATGGATGGGTTGAATTTCTGCACGTAGAAGCAAAAGGC has a fraction ligated of 0.0996. GAGACCGCAACTGAAAAGTTGTGGTCAGAAATGGATGGGTTGAATTTCTGCACGTAGAAGCAAAAGGC gave a fraction ligated of 0.00157. GAGACCGCAACTGAAAAGTTGTGTTCAGAAATGGATGGGTTGAATTTCTGCACGTAGAAGCAAAAGGC gave a fraction ligated of 0.104. For GAGACCGCAACTGAAAAGTTGTGATCACAAATGGATGGGTTGAATTTCTGCACGTAGAAGCAAAAGGC, the fraction ligated was 0.8. In the case of GAGACCGCAACTGAAAAGTTGTGATCATAAATGGATGGGTTGAATTTCTGCACGTAGAAGCAAAAGGC, the fraction ligated is reported as 0.803. GAGACCGCAACTGAAAAGTTGTGATCAAAAATGGATGGGTTGAATTTCTGCACGTAGAAGCAAAAGGC showed a fraction ligated of 0.798. Work on GAGACCGCAACTGAAAAGTTGTCATCACAAATGGATGGGTTGAATTTCTGCACGTAGAAGCAAAAGGC yielded a fraction ligated of 0.224. Work on GAGACCGCAACTGAAAAGTTGTCATCAAAAATGGATGGGTTGAATTTCTGCACGTAGAAGCAAAAGGC yielded a fraction ligated of 0.242. GAGACCGCAACTGAAAAGTTGTCATCATAAATGGATGGGTTGAATTTCTGCACGTAGAAGCAAAAGGC showed a fraction ligated of 0.326.

Reference: the supplement of paper PMC6755084
